From the supplement of paper PMC9112550, “Optimization of the antimicrobial peptide Bac7 by deep mutational scanning” (BMC Biology, 2022)

tested on: Escherichia coli TOP10; experiment: shrunken log2 fold change of peptide-encoding DNA abundance (4.5 h post-induction vs induction); higher = less antimicrobial activity (less host growth inhibition); conditions: time post-induction: 4.5 h; library: site-saturation at positions 5, 18, 19, 20
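Note: peptides expressed intracellularly from a pBAD plasmid library in pooled LB shake-flask culture, induced with 0.3% L-arabinose, DNA abundance read by NGS, three biological replicates, DESeq2 with apeglm shrinkage.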

Sequence | shrunken log2 fold change
RRIRDRPPRLPRPRPRPHTWPRP | -0.491
RRIRSRPPRLPRPRPRPHVRPRP | 0.128
RRIRKRPPRLPRPRPRPCKWPRP | 0.0523
RRIRGRPPRLPRPRPRPNIVPRP | 0.364
RRIRPRPPRLPRPRPRPSMVPRP | -0.376
RRIRWRPPRLPRPRPRPNKQPRP | 0.103
RRIRIRPPRLPRPRPRPWGRPRP | -0.239
RRIRIRPPRLPRPRPRPMVCPRP | -0.0245
RRIRVRPPRLPRPRPRPCEIPRP | -0.0392
RRIRHRPPRLPRPRPRPSEQPRP | -0.178
RRIRVRPPRLPRPRPRPCPFPRP | -0.314
RRIRVRPPRLPRPRPRPNMSPRP | -0.537
RRIRARPPRLPRPRPRPQVKPRP | 0.136
RRIRWRPPRLPRPRPRPCLRPRP | 0.0809
RRIRYRPPRLPRPRPRPLPPPRP | 0.0954
RRIRRRPPRLPRPRPRPSYWPRP | -0.0367
RRIRVRPPRLPRPRPRPFMYPRP | -0.642
RRIRDRPPRLPRPRPRPKITPRP | -0.375
RRIRWRPPRLPRPRPRPLGPPRP | 0.478
RRIRLRPPRLPRPRPRPDFGPRP | 0.153
RRIRVRPPRLPRPRPRPWFSPRP | -0.128
RRIRGRPPRLPRPRPRPALVPRP | 1.02

Sequence | shrunken log2 fold change
RRIRRRPPRLPRPRPRPCWAPRP | 0.153
RRIRARPPRLPRPRPRPNSGPRP | -0.0211
RRIRLRPPRLPRPRPRPADSPRP | -0.182
RRIRNRPPRLPRPRPRPKFIPRP | -0.602
RRIRFRPPRLPRPRPRPIFRPRP | -0.0966
RRIRTRPPRLPRPRPRPAFIPRP | -0.512
RRIRLRPPRLPRPRPRPPPWPRP | 0.892
RRIRYRPPRLPRPRPRPFTTPRP | 0.0402
RRIRFRPPRLPRPRPRPEQIPRP | 0.131
RRIRWRPPRLPRPRPRPQYEPRP | 0.0857
RRIRVRPPRLPRPRPRPMIGPRP | -0.112
RRIRYRPPRLPRPRPRPLWKPRP | -0.0695
RRIRIRPPRLPRPRPRPRQTPRP | -0.0527
RRIRPRPPRLPRPRPRPKTPPRP | 0.0677
RRIRLRPPRLPRPRPRPVKGPRP | -0.00152
RRIRERPPRLPRPRPRPCHKPRP | -0.154
RRIRNRPPRLPRPRPRPAHLPRP | 0.256
RRIRGRPPRLPRPRPRPFCMPRP | 0.0902
RRIRLRPPRLPRPRPRPETQPRP | 0.00473
RRIRFRPPRLPRPRPRPIMDPRP | -0.212
RRIRARPPRLPRPRPRPEVPPRP | 0.162
RRIRARPPRLPRPRPRPLPPPRP | 0.805

Sequence | shrunken log2 fold change
RRIRGRPPRLPRPRPRPFLLPRP | 0.206
RRIRSRPPRLPRPRPRPMCCPRP | 0.109
RRIRDRPPRLPRPRPRPAIQPRP | 0.389
RRIRSRPPRLPRPRPRPTTGPRP | 0.0655
RRIRKRPPRLPRPRPRPSLLPRP | -0.0176
RRIRVRPPRLPRPRPRPDAVPRP | 0.141
RRIRLRPPRLPRPRPRPWFTPRP | -0.509
RRIRTRPPRLPRPRPRPGHTPRP | -0.342
RRIRHRPPRLPRPRPRPNCVPRP | -0.0146
RRIRDRPPRLPRPRPRPPKDPRP | 0.314
RRIRQRPPRLPRPRPRPRTMPRP | -0.232
RRIRIRPPRLPRPRPRPKPKPRP | 0.161
RRIRGRPPRLPRPRPRPGNCPRP | 0.131
RRIRERPPRLPRPRPRPAQPPRP | 0.0203
RRIRCRPPRLPRPRPRPIWRPRP | 0.285
RRIRIRPPRLPRPRPRPIDLPRP | -0.179
RRIRMRPPRLPRPRPRPMRAPRP | 2.56
RRIRVRPPRLPRPRPRPFQQPRP | -0.014
RRIRLRPPRLPRPRPRPIRFPRP | -0.185
RRIRCRPPRLPRPRPRPNIPPRP | -0.822
RRIRERPPRLPRPRPRPILGPRP | -0.197
RRIRCRPPRLPRPRPRPRCPPRP | 0.418

Sequence | shrunken log2 fold change
RRIRVRPPRLPRPRPRPFFIPRP | -0.265
RRIRQRPPRLPRPRPRPRRHPRP | -0.0734
RRIRIRPPRLPRPRPRPEWIPRP | 0.0384
RRIRGRPPRLPRPRPRPNFNPRP | 0.0556
RRIRHRPPRLPRPRPRPTFMPRP | -0.102
RRIRERPPRLPRPRPRPGQDPRP | -0.0237
RRIRCRPPRLPRPRPRPSTEPRP | -0.174
RRIRERPPRLPRPRPRPFLSPRP | -0.11
RRIRCRPPRLPRPRPRPGCPPRP | 0.239
RRIRERPPRLPRPRPRPKHNPRP | -0.587
RRIRYRPPRLPRPRPRPCFSPRP | -0.594
RRIRDRPPRLPRPRPRPCAGPRP | 0.0969
RRIRKRPPRLPRPRPRPLQLPRP | 0.166
RRIRLRPPRLPRPRPRPQKRPRP | 0.0648
RRIRGRPPRLPRPRPRPLVWPRP | 0.952
RRIRSRPPRLPRPRPRPQKRPRP | -0.343
RRIRERPPRLPRPRPRPEIGPRP | -0.166
RRIRKRPPRLPRPRPRPTSIPRP | 0.208
RRIRQRPPRLPRPRPRPVSCPRP | 0.0853
RRIRPRPPRLPRPRPRPIDFPRP | -0.125
RRIRERPPRLPRPRPRPFYLPRP | -0.648
RRIRSRPPRLPRPRPRPQNFPRP | 0.00814

Sequence | shrunken log2 fold change
RRIRRRPPRLPRPRPRPIMPPRP | -0.188
RRIRIRPPRLPRPRPRPKFRPRP | -0.0682
RRIRYRPPRLPRPRPRPLINPRP | -0.279
RRIRQRPPRLPRPRPRPEMIPRP | -0.0264
RRIRNRPPRLPRPRPRPTKLPRP | 0.0886
RRIRQRPPRLPRPRPRPCKEPRP | 0.00843
RRIRTRPPRLPRPRPRPKRDPRP | 0.187
RRIRQRPPRLPRPRPRPSTQPRP | -0.481
RRIRMRPPRLPRPRPRPTRPPRP | 1.32
RRIRNRPPRLPRPRPRPMRNPRP | 0.115
RRIRGRPPRLPRPRPRPWDDPRP | 0.137
RRIRLRPPRLPRPRPRPAYWPRP | 0.154
RRIRRRPPRLPRPRPRPQPMPRP | 0.606
RRIRLRPPRLPRPRPRPSGPPRP | -0.216
RRIRYRPPRLPRPRPRPKTSPRP | -0.595
RRIRRRPPRLPRPRPRPMIMPRP | -0.323
RRIRNRPPRLPRPRPRPWPWPRP | 0.0162
RRIRSRPPRLPRPRPRPKHVPRP | -0.183
RRIRHRPPRLPRPRPRPHGDPRP | -0.01
RRIRGRPPRLPRPRPRPHRIPRP | 0.00463
RRIRARPPRLPRPRPRPFNPPRP | -0.432
